How the values were obtained:
[1] = test system: Mog. IIE or Mog. IE; experiment: branched glycosylation reactions by cells expressing UGT enzymes; assay type: cell-based, E. coli; settings: Mog. IIE or Mog. IE fed; 37° C., 48 hr; LC-MS/MS
Protocol: Mog. IIE or Mog. IE was fed to cells expressing various UGT enzymes. Reactions were incubated at 37° C. for 48 hr. Products were quantified by LC-MS/MS with authentic standards of each compound. “Indirect” evidence means that consumption of substrate was observed.

[2] = test system: steviol glycoside; experiment: steviol glycoside bioconversion by E. coli expressing individual mutations of UGT SEQ ID NO: 13; assay type: cell-based; settings: fold improvement of % conversion vs parent UGT SEQ ID NO: 13; stevia leaf extract and glucose fed; 37° C., 48 hr
Excerpt: A UGT enzyme referred to as MbUGT1,2 is described in U.S. Pat. No. 10,743,567, which is hereby incorporated by reference. An engineered version of MbUGT1,2 (SEQ ID NO: 13) is described in US 2020/0087692, which is hereby incorporated by reference in its entirety. The UGT enzyme of SEQ ID NO: 13 was further engineered to improve activity for steviol glycoside bioconversion. […] Fold improvement is with respect to % steviol glycoside conversion of the parent UGT enzyme (SEQ ID NO: 13). SEQ ID NO: 14 has the following mutations from SEQ ID NO: 13: G5N, F186T, V397S. Stevia leaf extract and glucose were fed to the bioconversion strains. Bioconversion took place at 37° C. for 48 hr. Data were quantified by reverse phase LC DAD to quantify conversion of steviol glycosides.
Fold improvement (FI) is with respect to % steviol glycoside conversion.

Row | Molecule | C3 1-2 [1] | C3 1-6 [1] | C24 1-2 [1] | C24 1-6 [1] | FI %Stevioside→rebE [2] | FI %rebA→rebD [2]
1 | SEQ ID NO: 74: CcUGT_1,6 (Coffea canephora) (protein, listed as Coffea canephora) MAENHATFNVLMLPWLAHGHVSPYLELAMKLTARNFNVYLCSSPATLSSVRSKLTEKFSQSIHLVELHLPKLPELPAEYHTTNGLPPHLMPTLKDAFDMAKPNFCNVLKSLKPDLLIYDLLQPWAPEAASAFNIPAVVFISSSATMTSFGLHFFKNPGTKYPYGNTIFYRDYESVFVENLKKRDRDTYRVVNCMERSSKIILIKGFKEIEGKYFDYFSCLTGKKVVPVGPLVQDPVLDDEDCRIMQWLNKKEKGSTVFVSFGSEYFLSKEDMEEIAHGLELSNVDFIWVVRFPKGENIVIEETLPKGFFERVGERGLVVNGWAPQAKILTHPNVGGFVSHCGWNSVMESMKFGLPIVAMPMHLDQPINARLIEEVGAGVEVLRDSKGKLHRERMAETINKVTKEASGEPARKKARELQEKLELKGDEEIDDVVKELVQLCATKNKRNGLHCYN | No | Yes | No | Yes | – | –
2 | G210E: mutation to UGT enzyme of SEQ ID NO: 13 (protein) MATKGSSGMSLAERFWLTLSRSSLVVGRSCVEFEPETVPLLSTLRGKPITFLGLMPPLHEGRREDGEDATVRWLDAQPAKSVVYVALGSEVPLGVEKVHELALGLELAGTRFLWALRKPTGVSDADLLPAGFEERTRGRGVVATRWVPQMSILAHAAVGAFLTHCGWNSTIEGLMFGHPLIMLPIFGDQGPNARLIEAKNAGLQVARNDEDGSFDREGVAAAIRAVAVEEESSKVFQAKAKKLQEIVADMACHERYIDGFIQQLRSYKDDSGYSSSYAAAAGMHVVICPWLAFGHLLPCLDLAQRLASRGHRVSFVSTPRNISRLPPVRPALAPLVAFVALPLPRVEGLPDGAESTNDVPHDRPDMVELHRRAFDGLAAPFSEFLGTACADWVIVDVFHHWAAAAALEHKVPCAMMLLGSAEMIASIADERLEHAETESPAAAGQGRPAAAPTFEVARMKLIR | – | – | – | – | 1.2 | 1.2
3 | C288F: mutation to UGT enzyme of SEQ ID NO: 13 (protein) MATKGSSGMSLAERFWLTLSRSSLVVGRSCVEFEPETVPLLSTLRGKPITFLGLMPPLHEGRREDGEDATVRWLDAQPAKSVVYVALGSEVPLGVEKVHELALGLELAGTRFLWALRKPTGVSDADLLPAGFEERTRGRGVVATRWVPQMSILAHAAVGAFLTHCGWNSTIEGLMFGHPLIMLPIFGDQGPNARLIEAKNAGLQVARNDGDGSFDREGVAAAIRAVAVEEESSKVFQAKAKKLQEIVADMACHERYIDGFIQQLRSYKDDSGYSSSYAAAAGMHVVIFPWLAFGHLLPCLDLAQRLASRGHRVSFVSTPRNISRLPPVRPALAPLVAFVALPLPRVEGLPDGAESTNDVPHDRPDMVELHRRAFDGLAAPFSEFLGTACADWVIVDVFHHWAAAAALEHKVPCAMMLLGSAEMIASIADERLEHAETESPAAAGQGRPAAAPTFEVARMKLIR | – | – | – | – | 1.7 | 1.5
4 | A248G: mutation to UGT enzyme of SEQ ID NO: 13 (protein) MATKGSSGMSLAERFWLTLSRSSLVVGRSCVEFEPETVPLLSTLRGKPITFLGLMPPLHEGRREDGEDATVRWLDAQPAKSVVYVALGSEVPLGVEKVHELALGLELAGTRFLWALRKPTGVSDADLLPAGFEERTRGRGVVATRWVPQMSILAHAAVGAFLTHCGWNSTIEGLMFGHPLIMLPIFGDQGPNARLIEAKNAGLQVARNDGDGSFDREGVAAAIRAVAVEEESSKVFQAKAKKLQEIVGDMACHERYIDGFIQQLRSYKDDSGYSSSYAAAAGMHVVICPWLAFGHLLPCLDLAQRLASRGHRVSFVSTPRNISRLPPVRPALAPLVAFVALPLPRVEGLPDGAESTNDVPHDRPDMVELHRRAFDGLAAPFSEFLGTACADWVIVDVFHHWAAAAALEHKVPCAMMLLGSAEMIASIADERLEHAETESPAAAGQGRPAAAPTFEVARMKLIR | – | – | – | – | 1.1 | 1.1
5 | V91A: mutation to UGT enzyme of SEQ ID NO: 13 (protein) MATKGSSGMSLAERFWLTLSRSSLVVGRSCVEFEPETVPLLSTLRGKPITFLGLMPPLHEGRREDGEDATVRWLDAQPAKSVVYVALGSEAPLGVEKVHELALGLELAGTRFLWALRKPTGVSDADLLPAGFEERTRGRGVVATRWVPQMSILAHAAVGAFLTHCGWNSTIEGLMFGHPLIMLPIFGDQGPNARLIEAKNAGLQVARNDGDGSFDREGVAAAIRAVAVEEESSKVFQAKAKKLQEIVADMACHERYIDGFIQQLRSYKDDSGYSSSYAAAAGMHVVICPWLAFGHLLPCLDLAQRLASRGHRVSFVSTPRNISRLPPVRPALAPLVAFVALPLPRVEGLPDGAESTNDVPHDRPDMVELHRRAFDGLAAPFSEFLGTACADWVIVDVFHHWAAAAALEHKVPCAMMLLGSAEMIASIADERLEHAETESPAAAGQGRPAAAPTFEVARMKLIR | – | – | – | – | 1.1 | 1.1
6 | SEQ ID NO: 29: OsUGT1-2 (Oryza sativa) (protein, listed as Oryza sativa) MDSGYSSSYAAAAGMHVVICPWLAFGHLLPCLDLAQRLASRGHRVSFVSTPRNISRLPPVRPALAPLVAFVALPLPRVEGLPDGAESTNDVPHDRPDMVELHRRAFDGLAAPFSEFLGTACADWVIVDVFHHWAAAAALEHKVPCAMMLLGSAHMIASIADRRLERAETESPAAAGQGRPAAAPTFEVARMKLIRTKGSSGMSLAERFSLTLSRSSLVVGRSCVEFEPETVPLLSTLRGKPITFLGLMPPLHEGRREDGEDATVRWLDAQPAKSVVYVALGSEVPLGVEKVHELALGLELAGTRFLWALRKPTGVSDADLLPAGFEERTRGRGVVATRWVPQMSILAHAAVGAFLTHCGWNSTIEGLMFGHPLIMLPIFGDQGPNARLIEAKNAGLQVARNDGDGSFDREGVAAAIRAVAVEEESSKVFQAKAKKLQEIVADMACHERYIDGFIQQLRSYKD | No | No | No | Yes | – | –
7 | SEQ ID NO: 39: SgUGT94-289-1 (Siraitia grosvenorii) (protein) MDAQRGHTTTILMFPWLGYGHLSAFLELAKSLSRRNFHIYFCSTSVNLDAIKPKLPSSSSSDSIQLVELCLPSSPDQLPPHLHTTNALPPHLMPTLHQAFSMAAQHFAAILHTLAPHLLIYDSFQPWAPQLASSLNIPAINFNTTGASVLTRMLHATHYPSSKFPISEFVLHDYWKAMYSAAGGAVTKKDHKIGETLANCLHASCSVILINSFRELEEKYMDYLSVLLNKKVVPVGPLVYEPNQDGEDEGYSSIKNWLDKKEPSSTVFVSFGSEYFPSKEEMEEIAHGLEASEVHFIWVVRFPQGDNTSAIEDALPKGFLERVGERGMVVKGWAPQAKILKHWSTGGFVSHCGWNSVMESMMFGVPIIGVPMHLDQPFNAGLAEEAGVGVEAKRDPDGKIQRDEVAKLIKEVVVEKTREDVRKKAREMSEILRSKGEEKMDEMVAAISLFLKI | No | Yes | Yes | Yes | – | –
8 | SEQ ID NO: 78: OsJUGT_1,6 (Oryza sativa) (protein, listed as Oryza sativa) MAQAERERLRVLMFPWLAHGHINPYLELATRLTTTSSSQIDVVVHLVSTPVNLAAVAHRRTDRISLVELHLPELPGLPPALHTTKHLPPRLMPALKRACDLAAPAFGALLDELSPDVVLYDFIQPWAPLEAAARGVPAVHFSTCSAAATAFFLHFLDGGGGGGGRGAFPFEAISLGGAEEDARYTMLTCRDDGTALLPKGERLPLSFARSSEFVAVKTCVEIESKYMDYLSKLVGKEIIPCGPLLVDSGDVSAGSEADGVMRWLDGQEPGSVVLVSFGSEYFMTEKQLAEMARGLELSGAAFVWVVRFPQQSPDGDEDDHGAAAARAMPPGFAPARGLVVEGWAPQRRVLSHRSCGAFLTHCGWSSVMESMSAGVPMVALPLHIDQPVGANLAAELGVAARVRQERFGEFEAEEVARAVRAVMRGGEALRRRATELREVVARRDAECDEQIGALLHRMARLCGKGTGRAAQLGH | No | No | Yes | No | – | –
9 | SEQ ID NO: 79: PgUGT94_B1 (Panax ginseng) (protein, Panax ginseng) MADNQNGRISIALLPFLAHGHISPFFELAKQLAKRNCNVFLCSTPINLSSIKDKDSSASIKLVELHLPSSPDLPPHYHTTNGLPSHLMLPLRNAFETAGPTFSEILKTLNPDLLIYDFNPSWAPEIASSHNIPAVYFLTTAAASSSIGLHAFKNPGEKYPFPDFYDNSNITPEPPSADNMKLLHDFIACFERSCDIILIKSFRELEGKYIDLLSTLSDKTLVPVGPLVQDPMGHNEDPKTEQIINWLDKRAESTVVFVCFGSEYFLSNEELEEVAIGLEISTVNFIWAVRLIEGEKKGILPEGFVQRVGDRGLVVEGWAPQARILGHSSTGGFVSHCGWSSIAESMKFGVPVIAMARHLDQPLNGKLAAEVGVGMEVVRDENGKYKREGIAEVIRKVVVEKSGEVIRRKARELSEKMKEKGEQEIDRALEELVQICKKKKDEQ | No | No | No | Yes | – | –
